Laboratory results reported in patent publication CN114349860A (SHENZHEN GUEN BIOTECHNOLOGY CO LTD, dated 2022).

Target: T1, FGFR4蛋白 (FGFR4 protein antigen, bought from Sino Biological / 义翘神州) (human, UniProt P22455 22-369, limits assumed)
T1 construct: also called FGFR4蛋白抗原; 成纤维细胞生长因子受体4
T1 sequence (looked up): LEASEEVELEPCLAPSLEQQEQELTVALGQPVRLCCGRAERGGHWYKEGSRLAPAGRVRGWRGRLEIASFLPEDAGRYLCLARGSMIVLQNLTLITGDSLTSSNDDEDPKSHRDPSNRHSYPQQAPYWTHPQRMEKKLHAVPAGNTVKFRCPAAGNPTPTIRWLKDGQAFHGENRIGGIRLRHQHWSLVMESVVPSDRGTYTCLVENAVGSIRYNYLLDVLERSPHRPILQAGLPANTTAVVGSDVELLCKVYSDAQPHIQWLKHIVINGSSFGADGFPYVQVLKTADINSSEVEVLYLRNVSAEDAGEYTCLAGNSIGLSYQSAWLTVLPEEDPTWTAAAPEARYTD
Assay: BLI (OCTET K2), FGFR4 protein 10 ug/mL loaded on AHC sensors, 1B5 at 566.7-8.84 nM in solution

B1: 抗成纤维细胞生长因子受体4单克隆抗体1B5 (antibody, V domains shown)
VH: EVMLVQSGPELKKPGETVKISCKASGYTFTNFGMNWVKQAPGKGLKWMGWINTYTGEPTYADDFKGRFVFSLETSASTAYLQINNLKNEDTATYLCVRSSSGYVFDYWGQGTIVTVG
VL: DIVMTQSPSSLAVSAGEKVTMSCKSSQSLLNSRTRKNYLAWYQQKPGQSPKLLIYWASTRESGVPDRFTGSGSGTDFTLTISSVQAEDLAVYYCKQSYNLLTFGEGTKLEIT
notes: Mouse hybridoma antibody (BALB/c), purified from ascites on Protein G and detected with anti-mouse IgG second antibodies; also called 1B5抗体; FGFR4单克隆抗体
Kd: < 1 pM
